From article PMC4725248, “Yeast mitochondrial HMG proteins”

Experiments:
[1] = molecular target: T1, CpGcf1p (CpGcf1noMP) (Candida parapsilosis CBS604) (UniProt G8BDQ3); assay: EMSA; details: EMSA: 20 mM Tris/HCl pH 7.5, 1 mM EDTA, 50 mM NaCl, 100 ug/ml BSA, 3 nM DNA, 10 min 30 C, gel 0.5x TBE 4 C, EM: 20 mM HEPES pH 7.5, 1 mM EDTA, room …
T1 sequence: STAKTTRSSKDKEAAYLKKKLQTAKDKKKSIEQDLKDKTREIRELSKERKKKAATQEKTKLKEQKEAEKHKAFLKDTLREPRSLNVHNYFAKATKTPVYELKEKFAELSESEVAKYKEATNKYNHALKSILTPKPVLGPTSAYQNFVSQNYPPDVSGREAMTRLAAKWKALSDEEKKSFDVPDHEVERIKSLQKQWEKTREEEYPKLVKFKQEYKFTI

[2] = molecular target: T2, ScAbf2p (ScAbf2noMP) (Saccharomyces cerevisiae) (UniProt Q02486); assay: EMSA; details: EMSA: 20 mM Tris/HCl pH 7.5, 1 mM EDTA, 50 mM NaCl, 100 ug/ml BSA, 3 nM DNA, 10 min 30 C, gel 0.5x TBE 4 C, EM: 20 mM HEPES pH 7.5, 1 mM EDTA, room …
T2 sequence: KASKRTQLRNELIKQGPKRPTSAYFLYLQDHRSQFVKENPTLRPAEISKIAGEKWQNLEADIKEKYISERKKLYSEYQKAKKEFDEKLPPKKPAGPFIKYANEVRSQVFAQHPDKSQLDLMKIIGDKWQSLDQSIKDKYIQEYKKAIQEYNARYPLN

CpGcf1p (CpGcf1noMP) [3] = molecular target: T3, CpGcf1p (CpGcf1noMP) (Candida parapsilosis CBS604, UniProt G8BDQ3 34-251); assay: EMSA; details: 120 nM protein, EMSA: 20 mM Tris/HCl pH 7.5, 1 mM EDTA, 50 mM NaCl, 100 ug/ml BSA, 3 nM DNA, 10 min 30 C, gel 0.5x TBE 4 C, EM: 20 mM HEPES pH 7.5, 1 mM EDTA, room …
T3 sequence: T1 sequence

ScAbf2p (ScAbf2noMP) [4] = molecular target: T4, ScAbf2p (ScAbf2noMP) (Saccharomyces cerevisiae, UniProt Q02486 27-183); assay: EMSA; details: 50% shift, 3 nM probe, EMSA: 20 mM Tris/HCl pH 7.5, 1 mM EDTA, 50 mM NaCl, 100 ug/ml BSA, 3 nM DNA, 10 min 30 C, gel 0.5x TBE 4 C, EM: 20 mM HEPES pH 7.5, 1 mM EDTA, room …
T4 sequence: T2 sequence

[5] = tested on: YlMhb1p (YlMhb1noMP) (Yarrowia lipolytica); assay: EMSA; details: 50% shift, 3 nM probe, EMSA: 20 mM Tris/HCl pH 7.5, 1 mM EDTA, 50 mM NaCl, 100 ug/ml BSA, 3 nM DNA, 10 min 30 C, gel 0.5x TBE 4 C, EM: 20 mM HEPES pH 7.5, 1 mM EDTA, room …
ScAbf2p (ScAbf2noMP) [6] = molecular target: T4, ScAbf2p (ScAbf2noMP); assay: EMSA; almost quantitative shift; EMSA: 20 mM Tris/HCl pH 7.5, 1 mM EDTA, 50 mM NaCl, 100 ug/ml BSA, 3 nM DNA, 10 min 30 C, gel 0.5x TBE 4 C; EM: 20 mM HEPES pH 7.5, 1 mM EDTA, 50 mM NaCl, room; details: protein: recombinant; tags: GST removed with PreScission protease (pGEX-6P-2); label: 32P, 5' end of S8; blunt
CpGcf1p (CpGcf1noMP) [7] = molecular target: T3, CpGcf1p (CpGcf1noMP); assay: EMSA; EMSA: 20 mM Tris/HCl pH 7.5, 1 mM EDTA, 50 mM NaCl, 100 ug/ml BSA, 3 nM DNA, 10 min 30 C, gel 0.5x TBE 4 C; EM: 20 mM HEPES pH 7.5, 1 mM EDTA, 50 mM NaCl, room; details: protein: recombinant, tags: GST removed with PreScission protease (pGEX-6P-2), label: 32P, blunt
ScAbf2p (ScAbf2noMP) [8] = molecular target: T4, ScAbf2p (ScAbf2noMP); assay: as above; details: protein: recombinant; tags: GST removed with PreScission protease (pGEX-6P-2); label: 32P, 5' end of S6; blunt

In the case of “ACACCATTAATTAAAGCTGCGAATACGATAGCAATACCAATACCTGCTCC (double strand) [50 bp atp9 dsDNA]”, the binding [1] is reported as “binds” and the binding [2] is reported as “binds”.

Work on Holliday junction (HJ) yielded a binding signal (fold higher than 3' Flap) (CpGcf1p (CpGcf1noMP) [3]) of 8.

In the case of fluorescent dsDNA, the K half (ScAbf2p (ScAbf2noMP) [4]) is reported as 30 nM and the K half [5] is reported as 120 nM.

B1: 25 bp atp9 dsDNA (dsDNA)
DNA 1: GGAGCAGGTATTGGTATTGCTATCG
DNA 2: CGATAGCAATACCAATACCTGCTCC
B1: binds (ScAbf2p (ScAbf2noMP) [6]); no binding (CpGcf1p (CpGcf1noMP) [7]; 5' end of S8).

B2: 15 bp atp9 dsDNA (dsDNA)
DNA 1: GGAGCAGGTATTGGT
DNA 2: ACCAATACCTGCTCC
B2: no binding (ScAbf2p (ScAbf2noMP) [8]); no binding (CpGcf1p (CpGcf1noMP) [7]; 5' end of S6).
